Biological target: Protein kinase C β2 (rat (endogenous in Wistar rat heart), UniProt P68403-2 1-673)
Assay: cell-based or functional assay

Chain of Protein kinase C β2 (P68403 other isoform, or with tags, fused parts or gaps): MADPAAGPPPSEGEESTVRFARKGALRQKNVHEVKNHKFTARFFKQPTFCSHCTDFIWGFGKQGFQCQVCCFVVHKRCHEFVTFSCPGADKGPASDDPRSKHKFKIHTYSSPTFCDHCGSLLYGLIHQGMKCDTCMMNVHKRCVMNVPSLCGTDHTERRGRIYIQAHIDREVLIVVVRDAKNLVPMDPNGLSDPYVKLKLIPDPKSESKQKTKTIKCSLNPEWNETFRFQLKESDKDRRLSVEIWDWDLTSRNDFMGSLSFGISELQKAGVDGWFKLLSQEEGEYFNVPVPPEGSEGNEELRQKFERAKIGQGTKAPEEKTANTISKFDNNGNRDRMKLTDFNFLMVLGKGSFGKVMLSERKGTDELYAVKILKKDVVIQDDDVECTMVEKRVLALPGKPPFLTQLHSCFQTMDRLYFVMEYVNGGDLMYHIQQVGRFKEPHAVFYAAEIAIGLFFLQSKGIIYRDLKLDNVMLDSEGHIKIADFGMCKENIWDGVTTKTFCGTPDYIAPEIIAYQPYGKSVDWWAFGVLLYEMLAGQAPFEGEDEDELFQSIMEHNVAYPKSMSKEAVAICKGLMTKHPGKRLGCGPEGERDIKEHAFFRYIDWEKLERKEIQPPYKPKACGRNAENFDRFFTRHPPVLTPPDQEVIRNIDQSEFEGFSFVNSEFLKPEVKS

B1: ROCK2 (enzyme, rat (endogenous in Wistar rat heart), UniProt Q62868 1-1388, looked up)
chain: MSRPPPTGKMPGAPEAAAGDGAGAGRQRKLEALIRDPRSPINVESLLDGLNSLVLDLDFPALRKNKNIDNFLNRYEKIVKKIRGLQMKAEDYDVVKVIGRGAFGEVQLVRHKASQKVYAMKLLSKFEMIKRSDSAFFWEERDIMAFANSPWVVQLFCAFQDDRYLYMVMEYMPGGDLVNLMSNYDVPEKWAKFYTAEVVLALDAIHSMGLIHRDVKPDNMLLDKHGHLKLADFGTCMKMDETGMVHCDTAVGTPDYISPEVLKSQGGDGYYGRECDWWSVGVFLFEMLVGDTPFYADSLVGTYSKIMDHKNSLCFPEDTEISKHAKNLICAFLTDREVRLGRNGVEEIKSASFFKNDQWNWDNIRETAAPVVPELSSDIDSSNFDDIEDDKGDVETFPIPKAFVGNQLPFIGFTYFRENLLLSDSPPCRENDAIQTRKSEESQEIQKKLYALEEHLSSEVQAKEELEQKCKSINTRLEKTAKELEEEITFRKNVESTLRQLEREKALLQHKNAEYQRKADHEADKKRNLENDVNSLKDQLEDLKKRNQSSQISTEKVNQLQKQLDEANALLRTESDTAARLRKTQAESSKQIQQLESNNRDLQDKNCLLETAKLKLEKEFINLQSALESERRDRTHGSEIINDLQGRISGLEEDLKTGKTLLAKVELEKRQLQEKLTDLEKEKSNMEIDMTYQLKVIQQSLEQEEAEHKTTKARLADKNKIYESIEEAKSEAMKEMEKKLLEERSLKQKVENLLLEAEKRCSILDCDLKQSQQKLNELLKQKDVLNEDVRNLTLKIEQETQKRCLMQNDLKMQTQQVNTLKMSEKQIKQENNHLMEMKMNLEKQNAELRKERQDADGQMKELQDQLEAEQYFSTLYKTQVRELKEENEEKTKLCKELQQKKQDLQDERDSLAAQLEITLTKADSEQLARSIAEEQYSDLEKEKIMKELEIKEMMARHKQELTEKDATIASLEETNRTLTSDVANLANEKEELNNKLKDTQEQLSKLKDEEISAAAIKAQFEKQLLTERTLKTQAVNKLAEIMNRKEPVKRGSDTDVRRKEKENRKLHMELKSEREKLTQQMIKYQKELNEMQAQIAEESQIRIELQMTLDSKDSDIEQLRSQLQALHIGMDSSSIGSGPGDAEPDDGFPESRLEGWLSLPVRNNTKKFGWVKKYVIVSSKKILFYDSEQDKEQSNPYMVLDIDKLFHVRPVTQTDVYRADAKEIPRIFQILYANEGESKKEPEFPVEPVGEKSNYICHKGHEFIPTLYHFPTNCEACMKPLWHMFKPPPALECSRCHIKCHKDHMDKKEEIIAPCKVYYDISSAKNLLLLANSTEEQQKWVSRLVKKIPKKPPAPDPFARSSPRTSMKIQQNQSIRRPSRQLAPNKPS
in vitro phosphorylation of dephosphorylated PKCβ2 at T641 with against without active ROCK2 (molar ratio 1:30, 400 µM ATP, 37°C, 45 min), Western blot: ~2 fold
